Reference: article PMC8166883 (Cellular and Molecular Immunology, 2020)

Key:
[1] = target: T1, FLAG-tagged human vascular endothelial growth factor-A (FLAG-hVEGF-A) (Homo sapiens, UniProt P15692-4); assay: SPR; Biacore T200; mAb held by anti-hIgG capture antibodies amine-coupled to a CM5 chip; purified antigen serially diluted in HBS-EP+ (100, 33.3, 11.1, 3.7, 1.23, 0.412 nM) injected 240 s at 30 µL/min, 300 s dissociation; 1:1 Langmuir binding model with mass transfer; KD calculated as kd/ka; settings: both partners purified
T1 construct: human vascular endothelial growth factor-A; The cell-based assays used bought recombinant hVEGF165 (Pepro Tech), not this construct

[2] = target: T2, histidine-tagged human semaphorin 3A fused with alkaline phosphatase (hSema3A-his-AP) (Homo sapiens, UniProt Q14563); assay: ELISA; antigen immobilised on MaxiSorp 384-well plates (62.5 ng/well), blocked with 1% BSA in PBS; DT40 culture supernatants 1 h at room temperature; detected by anti-hIgG-Fc HRP; settings: one partner purified
T2 construct: human semaphorin 3A; The expressing cells were a gift from Dr. Yoshio Goshima; the construct is not described further; source: HEK293 cells, stably expressed, purified (HisTrap Excel column, gel filtration)
T2 sequence (Q14563 21-771): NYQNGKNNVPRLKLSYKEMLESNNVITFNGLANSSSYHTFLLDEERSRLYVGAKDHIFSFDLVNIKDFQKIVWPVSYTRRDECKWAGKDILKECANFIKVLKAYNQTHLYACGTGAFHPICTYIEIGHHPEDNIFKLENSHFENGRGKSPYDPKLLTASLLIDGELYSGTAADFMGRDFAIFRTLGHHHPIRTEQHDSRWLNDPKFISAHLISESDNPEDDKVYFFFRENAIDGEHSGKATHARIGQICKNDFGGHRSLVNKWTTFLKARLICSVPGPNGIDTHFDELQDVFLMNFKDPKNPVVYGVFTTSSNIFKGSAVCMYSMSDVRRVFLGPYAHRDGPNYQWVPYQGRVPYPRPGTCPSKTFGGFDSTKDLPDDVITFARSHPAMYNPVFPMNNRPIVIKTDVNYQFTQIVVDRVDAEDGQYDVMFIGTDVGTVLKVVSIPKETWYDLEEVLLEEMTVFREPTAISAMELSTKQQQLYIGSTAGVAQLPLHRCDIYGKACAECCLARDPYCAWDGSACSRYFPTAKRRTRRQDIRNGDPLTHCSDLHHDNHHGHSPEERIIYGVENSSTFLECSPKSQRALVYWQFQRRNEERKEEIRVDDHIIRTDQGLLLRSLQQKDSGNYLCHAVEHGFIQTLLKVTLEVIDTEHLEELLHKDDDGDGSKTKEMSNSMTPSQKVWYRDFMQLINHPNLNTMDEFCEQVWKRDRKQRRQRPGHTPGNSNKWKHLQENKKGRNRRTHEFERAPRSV

Kd [1] [nM]	binding result [2]	Binder
0.0491	–	anti-hVEGF-A clone A033AM-19 (affinity-matured from A033) (antibody, V domains shown, human IgG1 heavy chain constant region (CH1, hinge, CH2, CH3); as the light chain of m7 (identical LC); human Igλ constant region (hCλ) amplified from Ramos cell cDNA; Full-length human IgG1, λ; source: DT40 cells (subclone of A033 sorted after culture without TSA), secreted human IgG, purified) VH: EVELVQSGAEVKKPGSSVKVSCKASGGTFSDYSISWVRQAPGQGLEWMGGIIPIFGTPNYAQKFQGRVTITADESTSTAYMELSSLRSEDTAVYYCADGGAYCGGDCYSGYYYYGMDVWGQGTTVTVSS VL: QSALTQPASVSGSPGQSITISCTGTSSDVGGYNLVSWYQQHPGKAPKLMIYQDNNKRPSGVSNRFSGSKSGNTASLTISGLQAEDEADYYCSYTNDSNSQVFGGGTKLTVL
–	binds	anti-hSema3A clones from the L30H45(fff) single clone-derived library (three clones with identical HC and LC sequences) (antibody, V domains shown, human IgG1 heavy chain constant region (CH1, hinge, CH2, CH3); human Igλ constant region (hCλ) amplified from Ramos cell cDNA; Full-length human IgG1, λ; source: DT40 L30H45(fff) cells treated with TSA for 86 days, selected on hSema3A-his-AP beads, limiting dilution cloning) VH: EVQLLESGGGLVQPGGSLRLSCAASGFTFSSYWMSNEMSWVRQAPGKGLEWVSSISGGSTYYADSVKGRFTISRDNSKNTLYLQMNSLRAEDTAVYYCAKGYSGYDYYFDYWGQGTLVTVSS VL: QSALTQPASVSGSPGQSITISCTGTSSDVGGYNYVSWYQQNPGKAPKLMIYDVSNRPSGISNRFSGSKSGNTASLTISGLQADDEADYYCTSYTNDSNSQVFGGGTKLTVL
